# Reference: paper PMC8979966
# B1: TCR 868 CDR3-alpha fragment GAHDYALN, as printed (the 868 form used here; an outside source, not checked, gives natural 868 a different CDR3-alpha) (parent)
# chain: GAHDYALN
# Variants of: B1
# Assay: YAMTAD yeast mating, deep sequencing; 2 biological x 4 technical repeats
# Conditions: with SL9 ([…]) on HLA-A*02:01, single chain; S. cerevisiae mating; SL9 group vs negative-control group; higher = more enriched with SL9 than with the negative controls; the paper calls a variant enriched at SL9/NC > 1 and P < 0.05; unresolved parent; not an affinity; keep out of graded; scale: ratio 'SL9/NC': mean frequency in the SL9-HLA-A*02:01 group / mean frequency in the sheet's 'NC' group, each normalised …; numbering: sequential-on-construct, sequence starts at 1
row,Variant,screen value
1,LAHDYALN,1.21
2,GACDYALN,1.13
3,GLHDYALN,1.06
